2 substances from PMC10058639 can be followed below.

For assay [1], the target named is recombinant truncated oyster intraflagellar transport protein 74-like protein (roIFT) (Crassostrea gigas (Pacific oyster)). Put plainly: ELISA.
Assay [2] has as its target recombinant truncated oyster tumor necrosis factor (roTNF) (Crassostrea gigas (Pacific oyster)). The experiment in a line: ELISA. In general terms: In an ELISA, binding on a coated surface is turned into a signal by an enzyme label.

Turning to “P protein of HuNoV GI.1, recombinant, purified (domain or fragment)”, the figures for the P/N (OD450 of sample over negative control) in assay [1] and in assay [2] were 6.97 and 5.88, respectively.

Regarding “P protein of HuNoV GII.4, recombinant, purified (domain or fragment)”, the figures for the P/N (OD450 of sample over negative control) in assay [1] and in assay [2] were 3.95 and 5.33, respectively.
